The RNAGym collection of RNA variant scans (doi:10.1073/pnas.2313332121)

B1: TPR t1 (parent)
chain: GACCAAUCUGCCCUCAGAGCUCGAGAACAUCUUCGGAUGCAGAGGAGGCAGGCUUCGGUGGCGCGAUAGCGCCAACGUCCUCAACCUCCAAUGCAUCCCACCACAUGAUGAUGCCUGAAGAGCCUUGGUUUUUUG

Variants of: B1
Experiment: polymerase ribozyme fitness, log enrichment relative to wild type (log ratio); higher = more active; in vitro selection for triplet polymerase activity
Procedure, shortened: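 Fitness compares each genotype's enrichment to that of the wild type on a logarithmic scale, averaging replicates with inverse-variance weights. The logarithm is base 2. Enrichment came from Illumina sequencing of input and output libraries after one triplicate round of in vitro selection, which included frozen incubation at −7 °C, of PCR-built, transcribed mutant libraries of each subunit of a heterodimeric triplet polymerase ribozyme. Only genotypes with ≥10 input reads and ≥1 read per output were kept.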

| Variant | polymerase ribozyme fitness (log ratio) |
| --- | --- |
| C70U C115G | -2.23 |
| C11A U132C | -1.49 |
| U32G A103G C104A C123A | -6.74 |
| A6G A41G A50G C70U | -0.773 |
| A111G C124A | 1.23 |
| A16U C49A G69U | -1.01 |
| U9G A105U G113A | -5.18 |
| A41C G63U G77C A100U | -4.24 |
| G10U A95U G128A | -3.44 |
| C114A | -1.39 |
| C3A G48U G71C C101A G127A | -3.71 |
| U33C A46G C64G C86A C115G | -5.34 |
| A43C C70U | -3.69 |
| U55G U130G | -0.58 |
| G10U | -0.124 |
| G63A U112A U125A | -1.17 |
| C8A U78C G113C | -0.875 |
| U9G C13U C73U A119G | 1.11 |
| C34G A111G G127A | -5.87 |
| G36A G42C C76G | -2.73 |
| C12A G44C C64U U125G | -2.52 |
| C31U C40U | -4.75 |
| C64U C73U | 0.562 |
| U32G C53A C64U U109G | -7.34 |

| Variant | polymerase ribozyme fitness (log ratio) |
| --- | --- |
| C62A C98U | -2.2 |
| A6U C12U A27U | -1.6 |
| A6C G42C | -1.69 |
| G10U C22G C56U C72U A90G C114U | -3.41 |
| U7A C12U A46U G58A C70A | -1.97 |
| G47A C104A | -2.7 |
| C104U C124U | 0.788 |
| C72U U87G C89U C123A | 0.156 |
| C64U C104G U109A | -6.28 |
| U21G C70U G93A | -3.75 |
| C34G A108G | -6.09 |
| C64U G117U | -1.28 |
| C8G C124A | 2.31 |
| C11A A46U | -2.08 |
| C3G C13U G45U G48A | -2.41 |
| G48A C72G A103U A119G | -3.79 |
| C12U C80U | -0.606 |
| A27U A37C A91G C94U U106C | -5.4 |
| C4A C8G G36U G45U G69C U78A C114U | -5.25 |
| A37C G44A A50U G120U | -3.3 |
| U106G C115U | -4.44 |
| A74U A121U C124A | 1.47 |
| A43C C114U G122A | -3.24 |
| A16G G69C A91U G113U | -3.01 |

| Variant | polymerase ribozyme fitness (log ratio) |
| --- | --- |
| U9G G10U | 0.261 |
| C62A C82U A91G C101G C123U G128U | -3.86 |
| G69C C86G | -2.97 |
| C72G A111U U130G | -4.27 |
| A83C G113U | -3.09 |
| C8G G48U C72A | 0.0646 |
| A6U G42U | -1.17 |
| C34U C101U U112A | -6.92 |
| C49A A103C | -5.44 |
| C72G C94U | 0.173 |
| C56A G120U | -0.119 |
| A29G G69C G77C | -4.34 |
| A37C G63C G77C C88U A105U | -5.64 |
| A41G A91U | -1.63 |
| G47U A95C U96A | -4.33 |
| C12U G44U G47C C89A A90C U116A U131G | -3.02 |
| U9C A111U A121C U126A U130G | -4.36 |
| A2C G10U A37C C64U U112C | -1.73 |
| C12U A27C C49A | -2.06 |
| C72U C86G | -0.742 |
| C49G C88U C94U | -0.799 |
| A46C C102A G120U C123A | -2.45 |
| G47U C98U | -4.36 |
| C49A U131C | -0.0361 |

| Variant | polymerase ribozyme fitness (log ratio) |
| --- | --- |
| G57C C70U | -0.607 |
| C4U C11U A37U G71C | -1.4 |
| A5G A111G G122U | -2.04 |
| G42C G44U C64G G113U | -5.99 |
| C3U C123G | 1.6 |
| G47A G60U G93C C101A | -4.1 |
| A5U G39U G45U C82A C123A | -2.8 |
| G19A C73G G77U U112A G128A | -2.41 |
| C53G C104U C114U G120U C123G C124A | -0.873 |
| C13U G47C C73A C99U | -4.72 |
| C73U A90C A95C | -1.36 |
| U116A C124A | 0.141 |
| G63C C89A U116C | -3.78 |
| C3U C79U | -0.681 |
| G60U G117C | -3.52 |
| G47U C114U | -3.33 |
| A27U G60A | -3.35 |
| A5U C8A | 0.0555 |
| C8U C12A G42A C70U U92A | -4.6 |
| C70G C104U G127C | -2.51 |
| C73A U126A | -1.73 |
| A95C C97U | -2.11 |
| A5G U14A C73U | -2.23 |
| G45C C49A C76U C102A | -3.88 |

| Variant | polymerase ribozyme fitness (log ratio) |
| --- | --- |
| U14G G69A A90C U112A G128A | -6.5 |
| A50C | -0.212 |
| G10A C11A U14G U54C C56U U81A | -2.09 |
| C8U G93C | 0.0241 |
| C12U C94U | -0.204 |
| A74U C104A C124G | 0.0488 |
| A46G G47U G120U U132A | -1.09 |
| A2U G69U | -1.7 |
| C11U U32A A46C G48A C72G U112G | -5.51 |
| G51U U87C C123A | -2.59 |
| A2G C11A | -1.77 |
| C8G U14G C53U G71A | -0.0624 |
| C8U C12G | 0.586 |
| C22U A74U C101A | -5.04 |
| C64U C97U | -1.3 |
| C56A U59G A83G | -1.48 |
| C4G A5G C53A C89A G113U C114U G122U U129G | -4.07 |
| C72U U132C | -0.841 |
| C34A C70U C79U | -4.29 |
| A16U C56G | -2.56 |
| A6C G17C U87C | -3.71 |
| G69C G113U | -4.51 |
| C22U U96A | -4.62 |
| C49G G69A A100C C101U | -5.56 |

| Variant | polymerase ribozyme fitness (log ratio) |
| --- | --- |
| A41U C53U C73A G120U | -2.14 |
| G63A U125A | -1.21 |
| U9C G17A A43U A50U A74C G120U | -4.05 |
| C11A A84C C85U U87A C89G C124A | -4.77 |
| C15U G44U G71C | -2.64 |
| C11G A29G A43C C49A A74C C85G G113A G135U | -3.78 |
| A90U C114G G117A | -4.57 |
| U55G A121C | 0.81 |
| A18C A91U | -1.86 |
| G42A G48C C56G C86U C101G | -4.3 |
| C13A C70A | -3.18 |
| C13U A50U A66G C88U A90U U109A U116C | -5.37 |
| C12A U14A C28U C85U | -3.93 |
| A6U G110A | -0.89 |
| G10U G39C | -0.652 |
| G39A U129C | -0.434 |
| A6C G61U U92C U129C | -2.43 |
| C73U C124A G127C | 1.61 |
| C4G A50C C115U | -4.34 |
| G36C U54G G61U | -5.87 |
| A29G G60C | -1.31 |
| G48U G69A G135U | -5.98 |
| A2C A37U C123U | -0.77 |
| A43G U87G | -0.843 |

| Variant | polymerase ribozyme fitness (log ratio) |
| --- | --- |
| A27C G39A G61A C94A U112G | -4.85 |
| G39U G45A | -2.22 |
| G71C C124A | -0.102 |
| A5C G48C U78A C115A | -2.4 |
| C12U G57C | 0.562 |
| A16U C22G C64U | -4.96 |
| G35A C64A C114G U125G | -7.35 |
| C4G G71U | -1.92 |
| C8G C53A | 0.628 |
| U9G G48A U81A C89A G93U C115G C123G | -6.43 |
| A6C C79A | -0.901 |
| A75G C88G | -1.04 |
| G44A G52A C56U | -1.35 |
| C11A C89U G135U | -2.46 |
| C13U U14A G71A C82G | -2.67 |
| A37G G113C | -2.15 |
| C13G G69A | -3.66 |
| C56A C101U G110A | -1.05 |
| C8U A18U A50U G69C C82A C124G | -3 |
| C11G G36U C56G C82U | -0.948 |
| C28U A41G A121C | -0.919 |
| C34G G51U C53A G69U G120U | -7.39 |
| C72G G93A | -0.585 |
